Results taken from IntAct's records for PubMed 29039417.

B1: Protein PTHB1 (Homo sapiens), Q3SYG4 (parent)
chain: MSLFKARDWWSTILGDKEEFDQGCLCLANVDNSGNGQDKIIVGSFMGYLRIFSPHPAKTGDGAQAEDLLLEVDLRDPVLQVEVGKFVSGTEMLHLAVLHSRKLCVYSVSGTLGNVEHGNQCQMKLMYEHNLQRTACNMTYGSFGGVKGRDLICIQSMDGMLMVFEQESYAFGRFLPGFLLPGPLAYSSRTDSFLTVSSCQQVESYKYQVLAFATDADKRQETEQQKLGSGKRLVVDWTLNIGEQALDICIVSFNQSASSVFVLGERNFFCLKDNGQIRFMKKLDWSPSCFLPYCSVSEGTINTLIGNHNNMLHIYQDVTLKWATQLPHIPVAVRVGCLHDLKGVIVTLSDDGHLQCSYLGTDPSLFQAPNVQSRELNYDELDVEMKELQKIIKDVNKSQGVWPMTEREDDLNVSVVVSPNFDSVSQATDVEVGTDLVPSVTVKVTLQNRVILQKAKLSVYVQPPLELTCDQFTFEFMTPDLTRTVSFSVYLKRSYTPSELEGNAVVSYSRPTDRNPDGIPRVIQCKFRLPLKLICLPGQPSKTASHKITIDTNKSPVSLLSLFPGFASQSDDDQVNVMGFHFLGGARITVLASKTSQRYRIQSEQFEDLWLITNELILRLQEYFEKQGVKDFACSFSGSIPLQEYFELIDHHFELRINGEKLEELLSERAVQFRAIQRRLLARFKDKTPAPLQHLDTLLDGTYKQVIALADAVEENQGNLFQSFTRLKSATHLVILLIALWQKLSADQVAILEAAFLPLQEDTQELGWEETVDAAISHLLKTCLSKSSKEQALNLNSQLNIPKDTSQLKKHITLLCDRLSKGGRLCLSTDAAAPQTMVMPGGCTTIPESDLEERSVEQDSTELFTNHRHLTAETPRPEVSPLQGVSE
partner: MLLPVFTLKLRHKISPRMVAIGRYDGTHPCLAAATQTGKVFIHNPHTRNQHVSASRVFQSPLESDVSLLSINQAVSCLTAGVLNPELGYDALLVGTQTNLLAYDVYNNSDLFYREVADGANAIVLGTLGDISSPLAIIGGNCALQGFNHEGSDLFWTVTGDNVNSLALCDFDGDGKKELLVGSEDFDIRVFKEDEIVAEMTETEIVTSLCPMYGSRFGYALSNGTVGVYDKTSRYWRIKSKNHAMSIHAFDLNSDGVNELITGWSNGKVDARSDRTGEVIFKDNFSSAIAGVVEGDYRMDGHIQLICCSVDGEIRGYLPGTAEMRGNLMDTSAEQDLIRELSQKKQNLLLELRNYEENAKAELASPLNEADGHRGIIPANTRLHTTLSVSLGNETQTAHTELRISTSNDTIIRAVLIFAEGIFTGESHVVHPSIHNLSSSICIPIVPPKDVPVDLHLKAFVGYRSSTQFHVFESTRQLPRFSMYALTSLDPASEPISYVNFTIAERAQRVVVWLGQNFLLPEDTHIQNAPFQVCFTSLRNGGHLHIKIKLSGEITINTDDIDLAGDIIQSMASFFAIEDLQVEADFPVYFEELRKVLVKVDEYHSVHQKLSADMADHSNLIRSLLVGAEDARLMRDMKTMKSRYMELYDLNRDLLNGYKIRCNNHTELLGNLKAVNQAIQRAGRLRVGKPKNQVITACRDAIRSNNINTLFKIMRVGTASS

Variants of: B1
Conditions: with bbs2_human BBS2, Q9BXC9

| Variant | effect of a mutation on the interaction |
| --- | --- |
| T836K | with no effect |
| G823K | with no effect |
| R824A | with no effect |
| R824W | disrupting interaction strength |
| P641E | with no effect |
| V749A | with no effect |
| T445A | with no effect |
| T725A | with no effect |
| Q748A | with no effect |
| V575A | with no effect |
| Q883E | with no effect |
| M578K | disrupting interaction strength |
| T688A | disrupting interaction strength |
| V440E | with no effect |
| S425E | with no effect |
| L795E | with no effect |
| K803E | with no effect |
| L720K | with no effect |
| Q627A | with no effect |
| D700A | with no effect |
| D700K | with no effect |
| L882E | with no effect |
| L882K | with no effect |

| Variant | effect of a mutation on the interaction |
| --- | --- |
| L560K | with no effect |
| S494K | with no effect |
| F653A | with no effect |
| Q693K | with no effect |
| T512E | with no effect |
| H778E | with no effect |
| Q742A | with no effect |
| A712K | with no effect |
| T731K | with no effect |
| T731E | with no effect |
| T496K | with no effect |
| Q574L | disrupting interaction strength |
| Q574A | with no effect |
| K704E | with no effect |
| F606E | with no effect |
| Q602E | with no effect |
| Q602K | with no effect |
| Q602L | disrupting interaction strength |
| V444A | with no effect |
| E790A | with no effect |
| R528A | with no effect |
| L870K | with no effect |
| D830A | with no effect |

| Variant | effect of a mutation on the interaction |
| --- | --- |
| A592E | with no effect |
| P540E | with no effect |
| N412E | with no effect |
| H694Y | disrupting interaction strength |
| H581A | with no effect |
| L744A | with no effect |
| L744K | with no effect |
| F724A | with no effect |
| R407K | with no effect |
| L583A | with no effect |
| T813C | disrupting interaction strength |
| T543K | with no effect |
| S458E | with no effect |
| V430E | with no effect |
| S820E | with no effect |
| E607A | with no effect |
| K685A | with no effect |
| F582K | with no effect |
| T613K | with no effect |
| T613I | disrupting interaction strength |
| R876E | with no effect |
| R876K | with no effect |
| S486R | disrupting interaction strength |

| Variant | effect of a mutation on the interaction |
| --- | --- |
| A586E | with no effect |
| W768E | with no effect |
| G518E | with no effect |
| V432A | with no effect |
| C469A | with no effect |
| C469K | with no effect |
| F721A | with no effect |
| L759E | with no effect |
| L759K | with no effect |
| L759A | with no effect |
| I657E | with no effect |
| V416K | with no effect |
| G579A | with no effect |
| G579E | with no effect |
| S593A | with no effect |
| Q621E | with no effect |
| Q621A | with no effect |
| N796E | with no effect |
| R619A | with no effect |
| L784K | with no effect |
| S558E | with no effect |
| D747K | with no effect |
| S745K | with no effect |

| Variant | effect of a mutation on the interaction |
| --- | --- |
| S418E | with no effect |
| K542E | with no effect |
| G565R | disrupting interaction strength |
| G565A | with no effect |
| Q643E | with no effect |
| G502A | with no effect |
| G502K | with no effect |
| I738K | with no effect |
| L465A | with no effect |
| C535A | with no effect |
| D573A | with no effect |
| L733A | with no effect |
| G718K | with no effect |
| S639E | with no effect |
| F673K | disrupting interaction strength |
| S667K | with no effect |
| L562K | with no effect |
| Q447E | with no effect |
| K789A | with no effect |
| T595K | with no effect |
| V671E | with no effect |
| A831E | with no effect |
| T871E | with no effect |

| Variant | effect of a mutation on the interaction |
| --- | --- |
| T871A | with no effect |
| L611A | with no effect |
| Q798A | with no effect |
| T702E | with no effect |
| T484E | with no effect |
| K547E | with no effect |
| A833E | with no effect |
| L665E | with no effect |
| G538K | with no effect |
| T473K | with no effect |
| Y623E | with no effect |
| K810E | with no effect |
| E664A | with no effect |
| Q672A | with no effect |
| E769A | with no effect |
| R674K | with no effect |
| L793E | with no effect |
| L793K | with no effect |
| D551A | with no effect |
| T434E | with no effect |
| A774K | with no effect |
| T552E | with no effect |
| P564A | with no effect |

| Variant | effect of a mutation on the interaction |
| --- | --- |
| L655A | with no effect |
| S860A | with no effect |
| L740E | with no effect |
| L740K | with no effect |
| L752A | with no effect |
| A690F | disrupting interaction strength |
| D650K | with no effect |
| D650A | with no effect |
| S777E | with no effect |
| G433E | with no effect |
| L681E | with no effect |
| L779E | with no effect |
| R683K | with no effect |
| D513E | with no effect |
| F476K | with no effect |
| L737K | with no effect |
| V459E | with no effect |
| L698K | with no effect |
| L666A | with no effect |
| D686K | with no effect |
| D686E | with no effect |
| P556K | with no effect |
| P556A | with no effect |

| Variant | effect of a mutation on the interaction |
| --- | --- |
| P556Q | disrupting interaction strength |
| V557A | with no effect |
| V557K | with no effect |
| E714K | with no effect |
| F632A | with no effect |
| F632K | with no effect |
| E715K | with no effect |
| P840E | with no effect |
| L814K | with no effect |
| S806E | with no effect |
| L533E | with no effect |
| S488A | with no effect |
| S488E | with no effect |
| E848K | with no effect |
| R510E | with no effect |
| I617K | with no effect |
| R600G | disrupting interaction strength |
| A427K | with no effect |
| S797A | with no effect |
| H652A | with no effect |
